{"source": "paper PMC12603276", "target": "MORC2 (UniProt Q9Y6X9)", "experiment": "co-IP of Flag-rPGK1, immunoblot", "conditions": "reference: WT Flag-rPGK1; sites S256", "data": [{"substance": "PGK1 (from UniProt P00558) Flag-rPGK1 S256A", "values": [{"measurement": "binding against the reference", "value": "lost"}]}]}
